Data on 3 substances can be found in patent US20100169989A1.

In assay [1] the target is myostatin mature C-terminal dimer (purified from conditioned medium of CHO cells carrying a myostatin expression construct) (UniProt O14793). Kind of assay: inhibition of labeled myostatin binding to Act RIIB-transfected COS-7 cells.
For assay [2], the target named is cell surface binding proteins on L6 myoblasts (GDF-8 receptor). Put plainly: I-125 labeled GDF-8 receptor-ligand binding assay on myoblasts.

The Ki is the equilibrium dissociation constant of an inhibitor or competing ligand from its target. A low value points to higher affinity. What is called Kd is a measure of binding affinity in units of concentration. Low values mean higher affinity, high ones lower affinity.

myostatin prodomain peptide (purified from the CHO cell myostatin preparation), sequence (O08689 25-267): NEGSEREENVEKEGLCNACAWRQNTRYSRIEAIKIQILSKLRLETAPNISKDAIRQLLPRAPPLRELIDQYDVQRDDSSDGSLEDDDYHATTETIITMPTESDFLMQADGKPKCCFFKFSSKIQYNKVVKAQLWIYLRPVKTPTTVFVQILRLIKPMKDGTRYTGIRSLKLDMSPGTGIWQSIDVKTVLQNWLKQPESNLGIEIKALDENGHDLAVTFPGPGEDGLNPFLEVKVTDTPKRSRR

follistatin: in assay [1], the Ki came to 0.47 nM.
The substance “myostatin prodomain peptide (purified from the CHO cell myostatin preparation)” came in with a fold of Ki against the Ki of follistatin in assay [1] of 50 fold.
Consider “recombinant human GDF-8 (rhGDF-8) homodimer (from UniProt O14793 267-374) (ligand)”, for which the dissociation constant Kd in assay [2] was 0.37 nM.
